According to article doi:10.1101/2023.03.28.534355 (bioRxiv, 2023):

Columns and labels:
[1] = target: GBP1 D308S/L309A/P310A (human) (UniProt P32455); experiment: mass photometry
[2] = target: human Guanylate-Binding Protein 1 (GBP1), full-length, non-farnesylated (human) (UniProt P32455); experiment: mass photometry
[3] = target: human Guanylate-Binding Protein 1 (GBP1), full-length, non-farnesylated (human) (UniProt P32455); experiment: SEC-MALS
mass photometry = target: the molecule itself; experiment: mass photometry

Molecule: GBP1 D308S/L309A/P310A (from UniProt P32455 1-592) (enzyme)
- stoichiometry N [1]: 2

Molecule: human Guanylate-Binding Protein 1 (GBP1), full-length, non-farnesylated (from UniProt P32455 1-592) (enzyme)
- stoichiometry N [2]: 2
- stoichiometry N [3]: 2

B1: GBP1 D308S (enzyme)
chain: MASEIHMTGPMCLIENTNGRLMANPEALKILSAITQPMVVVAIVGLYRTGKSYLMNKLAGKKKGFSLGSTVQSHTKGIWMWCVPHPKKPGHILVLLDTEGLGDVEKGDNQNDSWIFALAVLLSSTFVYNSIGTINQQAMDQLYYVTELTHRIRSKSSPDENENEVEDSADFVSFFPDFVWTLRDFSLDLEADGQPLTPDEYLTYSLKLKKGTSQKDETFNLPRLCIRKFFPKKKCFVFDRPVHRRKLAQLEKLQDEELDPEFVQQVADFCSYIFSNSKTKTLSGGIQVNGPRLESLVLTYVNAISSGSLPCMENAVLALAQIENSAAVQKAIAHYEQQMGQKVQLPTETLQELLDLHRDSEREAIEVFIRSSFKDVDHLFQKELAAQLEKKRDDFCKQNQEASSDRCSALLQVIFSPLEEEVKAGIYSKPGGYRLFVQKLQDLKKKYYEEPRKGIQAEEILQTYLKSKESMTDAILQTDQTLTEKEKEIEVERVKAESAQASAKMLQEMQRKNEQMMEQKERSYQEHLKQLTEKMENDRVQLLKEQERTLALKLQEQEQLLKEGFQKESRIMKNEIQDLQTKMRRRKACTIS
- stoichiometry N (mass photometry): 2
